This experiment deals with HLA-A*0201 MART-1 peptide complex on peptide-loaded K562 cells (human). In words: cell-based or functional assay.

For one substance, CD25 Fold Change (TCR-transduced CD8+ Jurkat KO cells co-cultured with peptide-loaded K562 APCs), CD69 Fold Change (TCR-transduced CD8+ Jurkat KO cells co-cultured with peptide-loaded K562 APCs) and IL2 Fold Change (TCR-transduced CD8+ Jurkat KO cells co-cultured with peptide-loaded K562 APCs) results are on record in patent publication US20230041030A1.

MART-1/Melan-A specific TCR DMF5: the CD25 Fold Change (TCR-transduced CD8+ Jurkat KO cells co-cultured with peptide-loaded K562 APCs) came out at 235 fold, the CD69 Fold Change (TCR-transduced CD8+ Jurkat KO cells co-cultured with peptide-loaded K562 APCs) was found to be 45 fold and the IL2 Fold Change (TCR-transduced CD8+ Jurkat KO cells co-cultured with peptide-loaded K562 APCs) is 33 fold.
